Data taken from patent US20060147922A1 (published 2006).
Blank lines part the entries; values can stand above or below the binder they belong to.

How the values were obtained:
EDDF1c (EDD aa 1-419) = target: T1, EDDF1c (EDD aa 1-419) (human, UniProt O95071 1-419); test: GST-importin α5 pull-down of IVT N-terminal EDD derivatives
T1 construct: In vitro translated, 35S-labelled; Contains neither N-terminal NLS
T1 sequence: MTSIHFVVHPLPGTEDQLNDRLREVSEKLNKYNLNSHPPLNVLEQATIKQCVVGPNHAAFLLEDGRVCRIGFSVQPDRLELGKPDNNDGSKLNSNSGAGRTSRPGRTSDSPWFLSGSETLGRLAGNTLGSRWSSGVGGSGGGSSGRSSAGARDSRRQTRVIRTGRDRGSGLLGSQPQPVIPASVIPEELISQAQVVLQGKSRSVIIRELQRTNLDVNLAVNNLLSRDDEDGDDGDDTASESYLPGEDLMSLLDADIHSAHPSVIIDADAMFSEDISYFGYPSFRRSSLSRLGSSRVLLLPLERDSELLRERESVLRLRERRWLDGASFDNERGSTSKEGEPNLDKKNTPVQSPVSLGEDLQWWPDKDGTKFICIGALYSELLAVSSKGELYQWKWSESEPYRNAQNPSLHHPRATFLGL

[1] = target: T2, EDDF2, central domain of EDD (aa 889-1877) (human, UniProt O95071 889-1877); test: GST-importin α5 pull-down of IVT 35S-EDD fragments
T2 construct: In vitro translated, 35S-labelled; also called central third; central region of EDD
T2 sequence: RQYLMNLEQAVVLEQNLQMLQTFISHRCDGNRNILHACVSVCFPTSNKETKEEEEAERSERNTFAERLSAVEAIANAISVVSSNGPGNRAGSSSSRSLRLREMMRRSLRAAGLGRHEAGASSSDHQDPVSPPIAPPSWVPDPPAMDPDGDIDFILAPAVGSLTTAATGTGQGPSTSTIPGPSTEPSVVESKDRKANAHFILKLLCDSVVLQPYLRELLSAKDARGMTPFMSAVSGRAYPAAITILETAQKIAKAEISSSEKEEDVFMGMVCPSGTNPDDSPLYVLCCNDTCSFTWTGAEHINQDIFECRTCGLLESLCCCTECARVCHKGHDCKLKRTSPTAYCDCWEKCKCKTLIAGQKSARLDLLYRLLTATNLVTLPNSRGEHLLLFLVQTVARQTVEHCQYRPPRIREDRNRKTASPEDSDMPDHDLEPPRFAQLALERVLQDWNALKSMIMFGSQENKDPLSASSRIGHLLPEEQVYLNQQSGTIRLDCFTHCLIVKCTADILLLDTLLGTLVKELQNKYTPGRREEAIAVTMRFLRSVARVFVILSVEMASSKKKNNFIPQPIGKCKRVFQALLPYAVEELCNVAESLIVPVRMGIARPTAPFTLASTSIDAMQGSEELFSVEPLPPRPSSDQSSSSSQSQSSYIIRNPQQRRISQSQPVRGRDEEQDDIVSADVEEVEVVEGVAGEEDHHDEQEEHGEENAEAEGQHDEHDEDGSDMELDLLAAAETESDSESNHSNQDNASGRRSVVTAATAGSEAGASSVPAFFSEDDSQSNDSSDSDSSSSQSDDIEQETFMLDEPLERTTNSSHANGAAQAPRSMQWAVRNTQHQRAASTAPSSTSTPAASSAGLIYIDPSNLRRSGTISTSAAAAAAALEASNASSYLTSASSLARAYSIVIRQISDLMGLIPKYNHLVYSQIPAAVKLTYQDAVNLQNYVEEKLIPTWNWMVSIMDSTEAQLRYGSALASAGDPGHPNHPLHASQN

[2] = target: T3, EDDF3, carboxy domain of EDD (aa 1877-2799) (human, UniProt O95071 1877-2799); test: GST-importin α5 pull-down of IVT 35S-EDD fragments
T3 construct: In vitro translated, 35S-labelled; also called carboxy third; carboxy terminal region of EDD
T3 sequence: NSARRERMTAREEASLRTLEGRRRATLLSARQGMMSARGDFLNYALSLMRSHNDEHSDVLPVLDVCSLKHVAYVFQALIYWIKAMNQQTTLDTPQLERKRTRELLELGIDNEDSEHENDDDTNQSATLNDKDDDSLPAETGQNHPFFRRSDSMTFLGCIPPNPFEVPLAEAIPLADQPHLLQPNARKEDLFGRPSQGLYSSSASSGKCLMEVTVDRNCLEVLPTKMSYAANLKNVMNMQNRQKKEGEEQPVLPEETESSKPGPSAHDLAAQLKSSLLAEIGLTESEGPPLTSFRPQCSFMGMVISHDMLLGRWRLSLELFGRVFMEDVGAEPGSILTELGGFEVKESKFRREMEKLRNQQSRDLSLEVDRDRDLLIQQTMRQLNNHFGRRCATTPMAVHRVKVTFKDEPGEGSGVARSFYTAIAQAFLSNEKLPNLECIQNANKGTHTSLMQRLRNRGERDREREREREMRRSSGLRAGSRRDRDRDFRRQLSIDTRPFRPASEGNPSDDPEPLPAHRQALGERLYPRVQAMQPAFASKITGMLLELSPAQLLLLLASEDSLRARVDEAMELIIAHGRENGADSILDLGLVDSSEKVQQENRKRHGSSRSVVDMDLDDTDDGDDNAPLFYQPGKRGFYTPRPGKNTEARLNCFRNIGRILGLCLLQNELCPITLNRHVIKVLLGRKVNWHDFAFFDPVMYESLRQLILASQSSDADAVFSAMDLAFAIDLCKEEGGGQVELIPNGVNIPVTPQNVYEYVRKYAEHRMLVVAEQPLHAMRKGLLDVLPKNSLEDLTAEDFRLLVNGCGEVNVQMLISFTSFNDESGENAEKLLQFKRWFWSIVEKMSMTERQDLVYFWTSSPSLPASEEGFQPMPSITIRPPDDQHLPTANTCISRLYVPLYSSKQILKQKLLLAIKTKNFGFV

[3] = target: T4, EDDF5, central plus C-terminal domains of EDD (aa 889-2799) (human, UniProt O95071 889-2799, binding suggested to be mediated by a phosphorylated threonine residue; residue not identified); test: GST pull-down of IVT 35S-EDDF5
T4 construct: In vitro translated, 35S-labelled; also called carboxyl two-thirds of EDD
Procedure: (§1) To determine the requirement for the chk2 FHA domain in this interaction, the binding between EDD and GSTchk2-N and two mutants was assessed. The R117A mutant contains a substitution within the FHA domain and involves a residue directly required for phosphothreonine binding.

[4] = target: T5, EDD protein, full length (aa 1-2799) (human, UniProt O95071 1-2799, EDD is phosphorylated in cells; the residue involved has not yet been identified); test: GST pull-down from MCF-7 nuclear extracts, EDD western blot
T5 construct: also called in vitro translated 35S-labelled EDD; endogenous EDD
Procedure: For GST fusion protein pull-down of endogenous or recombinant EDD from cell lysates, 0.5 to 1 mg total protein was incubated with 5 μg GST or GST fusion protein bound to glutathione beads for 1-2 h at 4° C. Beads were washed extensively in 1% Triton X-100 lysis buffer and bound proteins resolved by SDS-PAGE and detected by immunoblotting with EDD antisera (Callaghan et al, Oncogene 17, 3479-3491, 1998). For immunoprecipitation, 10 μl importin α5 antisera (Peter Palese, Mount Sinai School of Medicine) was incubated with 0.5 to 1 mg cell lysate (4° C. for 1 h). Antibody conjugates were captured on protein A sepharose beads (4° C. for 1 h) and washed extensively in lysis buffer. Bound proteins were resolved by SDS-PAGE followed by immunoblotting with EDD antisera.
as §1

[5] = target: T6, GAL4 DBD-EDDM fusion (full length EDD C2768A mutant bait) (yeast; human, UniProt O95071 1-2799); test: yeast two-hybrid screen; truncated clone
T6 construct: Bait for the yeast two-hybrid screen of a human placenta cDNA library; also called full length EDDM (C2768A mutant) bait
Description: (§2) The cDNAs for full length EDD mutant and carboxy domain mutants (EDDM and EDD5M) were screened against a human placenta cDNA library in the pACT2 vector by the yeast two-hybrid method (Matchmaker 2, Clontech, Palo Alto, Calif., USA). Stable transformants of Saccharomyces cerevisiae strain Y190 expressing EDD fusion protein were transformed with the library using the lithium acetate method and 2-3×10⁶ primary transformants selected on his-leu-trp-plates. Following a second round of selection on the same medium, colonies were assayed for β.galactosidase activity using a filter-based assay. Interacting plasmids that were positive for β.galactosidase only in the presence of the EDD bait plasmids were transformed into E. coli DH5α cells for further analysis. Manual sequencing was carried out using ³³P end-labelled primer in conjunction with the fmol Cycle sequencing kit (Promega Corp., Madison, Wis., USA). Sequences were analysed by Blast searches of the Genbank and EMBL databases and predicted proteins analysed for motifs using the ISREC Profile Scan Server (www.isrec.isb-sib.ch).

[6] = target: T7, EDDM, full length EDD with Cys2768 to Ala mutation (human, UniProt O95071 1-2799); test: anti-FLAG M2 immunoprecipitation from HEK 293 cells overexpressing mutant EDD, EDD western blot
T7 construct: Stably overexpressed in HEK 293 cells (FLAG-CIB co-immunoprecipitation) or transfected for reporter assays; also called mutant EDD; ligase-defective EDD mutant
Procedure: Left, HEK 293 cells overexpressing mutant EDD were transfected with a plasmid encoding Flag-tagged CIB or empty vector (vec). Extracts from these cells were subjected to immunoprecipitation using anti-FLAG Ab M2. Right, nuclear extracts prepared from MCF-7 cells following treatment with DNA damage agents phleomycin (Phleo) or hydroxyurea (HU) were incubated with either GST or GST-CIB fusion protein bound to glutathione-Sepharose beads. Bound proteins from both procedures were analysed by SDS-PAGE and western blotted for EDD and amounts bound are indicated as percentages relative to input.
Stable HEK 293 cells overexpressing EDDM were transfected with pCMVTag2C-CIB or empty vector using Fugene 6 reagent (Roche) for 24 h. Following 6 h incubation in the presence of MG132, cells were harvested and lysates prepared and one mg total protein incubated with anti-FLAG antibody M2 coupled to Sepharose (Sigma Chemical Co., St Louis, USA) for 2 h at 4° C. Beads were recovered by centrifugation and washed extensively in lysis buffer. Western blotting for EDD has been described (Callaghan et al, Oncogene 17, 3479-3491, 1998).

[7] = target: T6, GAL4 DBD-EDDM fusion (full length EDD …); test: yeast two-hybrid screen
Description: as §2, with “Manual sequencing was carried out using ³³P end-labelled primer in conjunction with the fmol Cycle sequencing kit (Promega Corp., Madison, Wis., USA).” left out
Further yeast two-hybrid screening was aimed at identifying other proteins involved in the ubiquitinylation or coactivation functions of EDD. […] The interaction between CIB and full length EDD initially detected in the yeast two-hybrid system (FIG. 10A) was confirmed by pull-down of in vitro translated EDD proteins with GST-CIB (FIG. 10B). […]

- binding result (EDDF1c (EDD aa 1-419)): no binding
- binding result [1]: no binding
- binding result [2]: no binding
B1: GST fused to amino acids 263-538 of human importin α5 (NPI-1) (other)
chain: LFVSDTDVLADACWALSYLSDGPNDKIQAVIDAGVCRRLVELLMHNDYKVVSPALRAVGNIVTGDDIQTQVILNCSALQSLLHLLSSPKESIKKEACWTISNITAGNRAQIQTVIDANIFPALISILQTAEFRTRKEAAWAITNATSGGSAEQIKYLVELGCIKPLCDLLTVMDSKIVQVALNGLENILRLGEQEAKRNGTGINPYCALIEEAYGLDKIEFLQSHENQEIYQKAFDLIEHYFGTEDEDSSIAPQVDLNQQQYIFQQCEAPMEGFQL
notes: also called GST-importin α5; GST-importin α; not shown: glutathione S-transferase (GST) fusion partner from a bacterial plasmid

- binding result [7]: binds
B5: GAL4 AD-CIB fusion, full length CIB/KIP (other, not shown: large carriers)
chain: MGGSGSRLSKELLAEYQDLTFLTKQEILLAHRRFCELLPQEQRTVESSLRAQVPFEQILSLPELKANPFKERICRVFSTSPAKDSLSFEDFLDLLSVFSDTATPDIKSHYAFRIFDFDDDGTLNREDLSRLVNCLTGEGEDTRLSASEMKQLIDNILEESDIDRDGTINLSEFQHVISRSPDFASSFKIVL
notes: Yeast two-hybrid prey clone from a human placenta cDNA library; also called CIB/KIP full-length clones

Further lines, the binder ahead of its results:

B2: GSTchk2-N derivative containing an R117A substitution (other)
chain: MSRESDVEAQQSHGSSACSQPHGSVTQSQGSSSQSQGISSSSTSTMPNSSQSSHSSSGTLSSLETVSTQELYSIPEDQEPEDQEPEEPTPAPWARLWALQDGFANLECVNDNYWFGADKSCEYCFDEPLLKRTDKYRTYSKKHFRIFREVGPKNSYIAYIEDHSGNGTFVNTELVGKGKRRPLNNNSEIALSLSRNKVFVFFDLTVDDQSVYPKALRDEYIMSKT
notes: also called GSTchk2-N R117A; R117A mutant; not shown: GST fusion partner at the N end and any vector linker
- binding result [3]: no binding
- binding result [4]: no binding

B3: GAL4 AD-importin α5 fusion, aa 229-538 (Impα-C) (other, not shown: large carriers)
chain: TRNAVWALSNLCRGKSPPPEFAKVSPCLNVLSWLLFVSDTDVLADACWALSYLSDGPNDKIQAVIDAGVCRRLVELLMHNDYKVVSPALRAVGNIVTGDDIQTQVILNCSALQSLLHLLSSPKESIKKEACWTISNITAGNRAQIQTVIDANIFPALISILQTAEFRTRKEAAWAITNATSGGSAEQIKYLVELGCIKPLCDLLTVMDSKIVQVALNGLENILRLGEQEAKRNGTGINPYCALIEEAYGLDKIEFLQSHENQEIYQKAFDLIEHYFGTEDEDSSIAPQVDLNQQQYIFQQCEAPMEGFQL
notes: Yeast two-hybrid prey clone; also called amino-truncated importin α5; truncated importin α5 clone
- binding result [5]: binds

B4: FLAG-tagged CIB (full-length CIB in pCMVTag2C) (other, not shown: small tags and cut ends)
chain: MGGSGSRLSKELLAEYQDLTFLTKQEILLAHRRFCELLPQEQRTVESSLRAQVPFEQILSLPELKANPFKERICRVFSTSPAKDSLSFEDFLDLLSVFSDTATPDIKSHYAFRIFDFDDDGTLNREDLSRLVNCLTGEGEDTRLSASEMKQLIDNILEESDIDRDGTINLSEFQHVISRSPDFASSFKIVL
notes: Expressed in HEK 293 cells overexpressing EDDM
- binding result [6]: binds
